Data from PMC11485048.

Tests used:
[1] = target: SpyTag-noro-VLP (norovirus-like particle of the capsid protein VP1 with a C-terminally fused SpyTag) (norovirus (genotype not stated)); assay: covalent SpyCatcher/SpyTag conjugation read by SDS-PAGE densitometry; SpyCatcher-antigen mixed with SpyTag-noro-VLP at 2:1 (P domain) or 4:1 (peptides) molar ratio, about 40 hours at +4 °C; unreacted SpyCatcher-antigen removed by dialysis through a 1000 kDa cut-off membrane; first immunization experiment
[2] = target: SpyTag-noro-VLP (norovirus-like particle of the capsid protein VP1 with a C-terminally fused SpyTag) (norovirus (genotype not stated)); assay: covalent SpyCatcher/SpyTag conjugation read by SDS-PAGE densitometry; SpyCatcher-P domain conjugated on SpyTag-noro-VLP as in the first experiment; nonconjugated antigen removed by size-exclusion chromatography (HiPrep 16/60 Sephacryl S-500 HR); second immunization experiment

Substance: SpyCatcher-P domain fusion (furin P domain, residues 444-576) (from UniProt P09958 444-576)
- conjugation efficiency (%) [1]: 20%
- conjugation efficiency (%) [2]: 5%
